# Measured values: patent publication US20060223757, “Zinc finger binding domains for GNN” (published 2006)
# B1: E2C target site (erbB-2 5'-UTR) (dsDNA)
# DNA 1: GGGGCCGGAGCCGCAGTG
# DNA 2: CACTGCGGCTCCGGCCCC
# B2: E3 target site (erbB-3 5'-UTR) (dsDNA)
# DNA 1: GGAGCCGGAGCCGGAGTC
# DNA 2: GACTCCGGCTCCGGCTCC
# Columns and labels:
# [1] = target: T1, E2C (six-finger Sp1C framework protein) (synthetic construct); assay: EMSA; ±15%; ZBA buffer with ZnCl2, room temperature
# [2] = target: T2, E3 (six-finger Sp1C framework protein) (synthetic construct); assay: EMSA; ±15%; about 30-fold lower affinity than E3 target
# [3] = target: T2, E3 (six-finger Sp1C framework protein); assay: EMSA; ±10%; ZBA buffer with ZnCl2, room temperature
# [4] = target: T1, E2C (six-finger Sp1C framework protein); assay: EMSA; ±30%; 3 mismatches to E2C target
# T2 sequence (chain, as listed by the source): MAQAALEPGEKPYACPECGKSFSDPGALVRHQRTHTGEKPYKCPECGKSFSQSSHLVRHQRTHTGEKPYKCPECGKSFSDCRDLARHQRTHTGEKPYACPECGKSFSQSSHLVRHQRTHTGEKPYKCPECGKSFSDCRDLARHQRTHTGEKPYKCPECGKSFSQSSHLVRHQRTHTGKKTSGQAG
# T1 sequence (chain, as listed by the source): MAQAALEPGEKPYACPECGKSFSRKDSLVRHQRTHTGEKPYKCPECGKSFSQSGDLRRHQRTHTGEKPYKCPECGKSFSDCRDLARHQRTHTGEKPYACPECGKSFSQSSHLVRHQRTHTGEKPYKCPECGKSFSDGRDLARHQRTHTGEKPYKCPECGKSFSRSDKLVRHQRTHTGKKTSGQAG
Binder,Kd [1] [nM],Kd [2] [nM],Kd [3] [nM],Kd [4] [nM]
B1,0.75,10,–,–
B2,–,–,0.35,11
